{"source": "patent US20020147326A1", "about": "“Hexameric fusion proteins and uses therefor” (SmithKline Beecham Corporation, priority 1996, published 2002)", "key": {"[1]": {"target": "T1, human CD28 on PCD28.1.s2.1 cells (Homo sapiens, UniProt P10747)", "T1 construct": "expressed in transfected cells; host or cells: PCD28.1.s2.1 (PE30.2 murine T-cell hybridoma transfected with pHbactCd28neo)", "experiment": "Flow cytometry binding to cells expressing cell-surface CD28", "type": "cell-based", "details": "on ice", "experimental": "Non-adherent CD28 expressing cells (PCD28.1.s2.1) were used for this assay format. PCD28.1.S2.1 cells were created by transfection of PE30.2 cells [D. Emilie et al., Eur. J. Immunol., 19:1619-1624 (1989)] with a vector for expression of human CD28 [D. Couez et al., Molecular Immunology, 31:47-57 (1994)]. All incubations were carried out on ice. Unlabelled CD80- and CD86-Igαtp or CD80 and CD86-Ig were incubated with the cells in binding buffer consisting of PBS w/o Ca+2/Mg+2, 0.2% bovine serum albumin and 0.1 % sodium azide. After washing twice in binding buffer, bound fusion proteins were detected with a 1:2000 dilution of a goat anti-human polyclonal antibody labeled with FITC (Flourescein isothiocyanate, Southern Biotech). Following two additional washes in binding buffer, the cells were resuspended in binding buffer and analyzed on a FACSort analyzer (Becton-Dickinson) using a 488 nm laser."}, "[2]": {"target": "T2, CD28-Ig (Homo sapiens, UniProt P10747)", "T2 construct": "native leader and extracellular domain peptide of CD28 and CD80 were grafted onto a human IgG1 heavy chain Fc region; human IgG1 Fc (hinge/CH2/CH3); made in house; host or cells: CHO cells", "experiment": "Isothermal titration calorimetry, binding to CD28-Ig in solution", "from_the_text": "The solution binding properties of the hexameric and standard Ig fusion proteins of CD80 and CD86 were compared using isothermal titration calorimetry, essentially as described previously for other proteins [K. Johanson et. al., J. Biol. Chem, 270: 9459-9471 (1995), and references therein].\nThis lower affinity for CD28 than for CTLA4 is in agreement with other reports [P. S. Linsley et. al., Immunity 1: 793-801 (1994)]."}, "[3]": {"tested_on": "PCD28.1.S2.1 cells (human CD28, lacZ fused to the IL-2 promoter)", "experiment": "FDG assay for IL-2 promoter activity (lacZ reporter)", "type": "cell-based, murine", "details": "added directly to PC28.1.s2.1 cells in solution (FIG. 20A)", "experimental": "A second assay for agonist activity measured induction of IL-2 promoter activity, rather than production of IL-2 protein. The PCD28.1.S2.1 cells described above also contain lacZ fused to the IL-2 promoter. Thus, the PCD28.1.S2.1 cell line provides a convenient system for measuring IL-2 promoter activity upon CD28-mediated T cell simulation. T cells were activated as described above for the CTLL-2 assay, spun down, resuspended in 50 μl of media+50 μl of PBS, lysed with 10 μl of 20% Triton X-100, and supplemented with 25 μl of 10 mM FDG (Molecular Probes), a fluorogenic substrate for b-galactosidase. Hydrolysis of FDG first yields fluorescein monogalactoside (FMG) and then the highly fluorescent product fluorescein. Cell lysates were incubated with FDG for 60 min., and the levels of fluorescence were measured by Fluoroscan (MTX Lab Systems, Inc).\n(§1) IL-2 promoter activity and IL-2 levels were measured similarly to that described in parts A and B above, except that proliferation of the reader CTLL-2 cells was measured by ^3H-thymidine incorporation."}, "[4]": {"tested_on": "murine T-cell hybridoma cell lines expressing human CD28 (PCD28.1.s2.1, DCL27CD28wt.s2)", "experiment": "IL-2 production by CD28 T-cell hybridomas (CTLL-2 bioassay)", "type": "cell-based", "from_the_text": "The CD80- and CD86-Igαtp proteins were compared to the corresponding CD80 and CD86-Ig proteins to determine their ability to stimulate cells expressing human CD28 using two murine T-cell hybridoma cell lines expressing human CD28, PCD28.1.s2.1 and DCL27CD28wt.s2. The PCD28.1.s2.1 cell line was described in Example 1, part 3. The DCL27CD28wt.s2 cell line was created by transfection of the DC27 cell line [F. Pages et al., Nature, 369:327-329 (1994); F. Pages et al., J. Biol. Chem., 271(16):9403-9409 (1996)] with the same CD28 expression vector used for the PCD28.1.s2.1 cells [D. Couez et al., Molecular Immunology, 31:47-57 (1994)]. These cell lines were examined for their ability to produce IL-2 in response to activation with CD80- and CD86-Ig in comparison with the corresponding Igαtp fusion proteins. 96-well plates were coated with or without a CD3 antibody together with the CD80 and CD86 fusion proteins. This was accomplished by first incubating the plates with a previously determined suboptimal concentration of hamster […] CD3 antibody (MAb 145-2C11, Boerhinger-Mannheim Biochemicals) for two hours at room temperature (RT) or with just buffer alone, washing the plates with PBS, adding goat anti-human Ig heavy chain (GAH-IgHc, Sigma Chemical Co.) for an additional two hours at RT, washing again and coating with different concentrations of the CD80 or CD86 fusion protein for 16-18 hours at 4° C., washing again, and finally blocking for 30 min. with 0.2% BSA-PBS. […] T cells were incubated in the wells for 24 hours at 37° C., and supernatants were collected and evaluated for IL-2 levels in a standard CTLL-2 bioassay [S. M. Gillis et al., J. Immunol., 120:2027 (1978)]. […] OD570 readings were converted into ng/ml of IL-2 based on a standard curve generated by treating cells with known concentrations of IL-2.\nas §1"}}, "data": [{"molecule": "CD86-Ig: binding protein/Fc construct for CD86 with human IgG1 Fc (protein, left off: a dimerising Fc or GST) APLKIQAYFNETADLPCQFANSQNQSLSELVVFWQDQENLVLNEVYLGKEKFDSVHSKYMGRTSFDSDSWTLRLHNLQIKDKGLYQCIIHHKKPTGMIRIHQMNSELSVLANFSQPEIVPISNITENVYINLTCSSIHGYPEPKKMSVLLRTKNSTIEYDGIMQKSQDNVTELYDVSISLSVSFPDVTSNMTIFCILETDKTRLLSSPFSIELEDPQPPPDHEPKSADKTHTCPPCP", "values": [{"measurement": "binding to CD28 positive cells", "setting": "[1]", "value": "no binding"}, {"measurement": "interaction with CD28-Ig in solution by calorimetry", "setting": "[2]", "value": "not detected"}, {"measurement": "IL-2 promoter activity", "setting": "[3]", "value": "no stimulation"}, {"measurement": "IL-2 production", "setting": "[4]; added directly to PC28.1.s2.1 cells in solution, CTLL-2 3H-thymidine incorporation (FIG. 20B)", "value": "no stimulation"}, {"measurement": "IL-2 response", "setting": "[4]; cross-linked with GAH antibody, no CD3 antibody", "value": "did not give a response"}, {"measurement": "IL-2 production", "setting": "[4]; soluble protein, absence of CD3 crosslinking", "value": "no activity"}]}]}
